The source of these data is publication PMC2708863.

Where two headings read alike, the source gives them in different places.

Holding throughout (assay): NMR titration
Test [1] concerns the target ^2–5FnI, second to fifth type I domains of human fibronectin (human).
Test [2] addresses ^2–3FnI, human fibronectin residues 93–182 (human) (UniProt P02751).
The target in test [3] is ^4–5FnI, human fibronectin residues 183–275 (human) (UniProt P02751).
Test [4] has the same target. The source holds these as a separate data set.

One may read the Kd as the concentration at which binding is half-saturated. High values mean a looser complex, low ones a tighter complex. In test [1], “^2–3FnIII, second and third type III domains of human fibronectin (domain or fragment)” returned a dissociation constant (Kd) of 125 µM and a fractional saturation of 25%.

With “^2FnIII, second type III domain of human fibronectin (domain or fragment)”, the Kd was found to be 710 µM in test [2], 1200 µM in test [3] and 820 µM in test [4].
